Results: patent US6127144, “Method for expression of proteins in bacterial host cells” (Cangene Corporation, dated 2000)
Blank lines part the entries; values can stand above or below the molecule they belong to. No end group written: not given here. *: point of attachment. CH2Cl = ClC*

Tests used:
[1] = biological target: T1, D-phenylalanyl-L-prolyl-L-arginine beta-napthylamide
T1 sequence (peptide, D-phenylalanine at position 1; C-terminal beta-naphthylamide): FPR

GPM-bNA = biological target: T2, GPM-bNA
T2 sequence (peptide, C-terminal beta-naphthylamide): GPM

[2] = biological target: T3, L-alanyl-L-prolyl-L-phenylalanine beta-naphthylamide
T3 sequence (peptide, C-terminal beta-naphthylamide): APF

[3] = biological target: tripeptidyl aminopeptidase-S (Tap) of Streptomyces lividans 66 (Streptomyces lividans 66)
[4] = biological target: T4, tripeptidyl aminopeptidase-S (Tap) of Streptomyces lividans 66 (Streptomyces lividans 66); assay: inactivation kinetics of purified Tap on ice, residual activity with APA-pNA (Example 8)
T4 chain: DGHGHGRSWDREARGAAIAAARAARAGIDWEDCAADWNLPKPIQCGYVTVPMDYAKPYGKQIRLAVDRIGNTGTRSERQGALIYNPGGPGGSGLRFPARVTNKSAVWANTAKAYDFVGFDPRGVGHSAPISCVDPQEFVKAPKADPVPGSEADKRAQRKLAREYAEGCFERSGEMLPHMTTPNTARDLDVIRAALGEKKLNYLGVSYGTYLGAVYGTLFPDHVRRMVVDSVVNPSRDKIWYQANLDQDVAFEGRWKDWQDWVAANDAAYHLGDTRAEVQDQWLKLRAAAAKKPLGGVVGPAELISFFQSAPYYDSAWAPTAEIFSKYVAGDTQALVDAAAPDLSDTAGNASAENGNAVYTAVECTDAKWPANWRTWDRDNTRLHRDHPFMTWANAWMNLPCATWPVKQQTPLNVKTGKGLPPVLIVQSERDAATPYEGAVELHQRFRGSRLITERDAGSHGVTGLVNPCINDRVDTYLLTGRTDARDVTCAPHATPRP
Protocol: A stock solution of 1.1 uM Tap in 50 mM Tris-HCl, pH 8.0 was prepared. APACMK stock solutions of 11 uM, 13.8 uM, 17.3 uM, 21.7 uM, 27.0 uM, 54.0 uM, 108 uM, and 1.08 mM were prepared. The Substrate Solution was 50 mM Tris-HCl, pH 8.0, 0.8 mM APA-pNA. The inactivation was performed by placing 90 ul of Tap […] in a 1.5 ml Eppendorf tube on ice and adding 10 ul of water (uninhibited control) or 10 ul of APACMK. A 10 ul aliquot was removed immediately and was assayed by adding it to a cuvette containing 390 ul Substrate Solution at 22° C. The initial velocity was obtained from the change in absorbance at 405 nm during the first 10 seconds of the assay. Additional aliquots were removed at time points and assayed by the same method. At APACMK concentrations greater than 5.0 uM in the incubation, it was not possible to remove an aliquot from the incubation before 90% inactivation occurred.

B1: tripeptidyl aminopeptidase-S (Tap) of Streptomyces lividans 66 (enzyme)
chain: T4 chain
Tripeptidyl Aminopeptidase Activity (A540 above background) (A540 above background) [1]: 0.02
Tripeptidyl Aminopeptidase Activity (A540 above background) (A540 above background) (GPM-bNA): > 3
Tripeptidyl Aminopeptidase Activity (A540 above background) (A540 above background) [2]: > 3

Molecule: Ala-Pro-Ala-CH2Cl (also: hydrochloride salt) [L-alanyl-L-prolyl-L-alanine chloromethylketone]
inactivation of Tap, residual activity assayed with APA-pNA [3]: > 99%
kinact [3]: 0.14 min⁻¹
Ki [4]: 3.3 µM

Continued, values first:

A405, APA-bNA assay on 20 µl cell-free broth (APA-bNA): 1.15 A405
A540, Boc-APARSPA-bNA assay on 20 µl cell-free broth (Boc-APARSPA-bNA): 0.278 A540
Molecule: soluble SlpD secreted from AP6.SlpD (enzyme)

A540, Boc-APARSPA-bNA assay on 20 µl cell-free broth (Boc-APARSPA-bNA): 0.084 A540
Molecule: soluble SlpE secreted from AP6.SlpE (enzyme)
